For 8 molecules, EC50 (hNMUR1) buffer results are on record in US20240279278A1, “NMU RECEPTOR 2 AGONISTS” (Boehringer Ingelheim International GmbH, priority 2023, published 2024).

In this assay the target is T1, human neuromedin U receptor 1 (human, UniProt Q9HB89 24-426).
T1 sequence (looked up): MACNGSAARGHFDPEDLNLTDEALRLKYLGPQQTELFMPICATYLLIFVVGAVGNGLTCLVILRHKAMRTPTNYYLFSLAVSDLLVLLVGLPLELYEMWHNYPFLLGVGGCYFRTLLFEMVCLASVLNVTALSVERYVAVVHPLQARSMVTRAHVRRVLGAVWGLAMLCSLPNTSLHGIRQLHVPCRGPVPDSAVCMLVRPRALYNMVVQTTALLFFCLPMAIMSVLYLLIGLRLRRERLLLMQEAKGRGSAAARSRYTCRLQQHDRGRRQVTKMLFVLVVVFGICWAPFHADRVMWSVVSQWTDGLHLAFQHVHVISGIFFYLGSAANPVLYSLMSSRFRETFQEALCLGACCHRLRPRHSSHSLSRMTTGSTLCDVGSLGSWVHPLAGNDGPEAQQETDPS
Kind of assay: cell-based or functional assay.

B1: C20DA-gGlu3-Sar15-AEPipAc-Tyr-Phe-NMeLeu-Nle-Dbu-NMeAla-Arg-Gly-NH2 (peptide)
peptide: EEEXXXXXXXXXXXXXXXXYFLXXARG
HELM: PEPTIDE1{[O=C(O)CCCCCCCCCCCCCCCCCCC(=O)[*:2]].[gGlu].[gGlu].[gGlu].[Sar].[Sar].[Sar].[Sar].[Sar].[Sar].[Sar].[Sar].[Sar].[Sar].[Sar].[Sar].[Sar].[Sar].[Sar].[O=C(CN1CCN(CCN[*:1])CC1)[*:2]].Y.F.[meL].[Nle].[Dab].[meA].R.G.[am]}$$$$V2.0
SMILES: CCCC[C@H](NC(=O)[C@H](CC(C)C)N(C)C(=O)[C@H](Cc1ccccc1)NC(=O)[C@H](Cc1ccc(O)cc1)NC(=O)CN1CCN(CCNC(=O)CN(C)C(=O)CN(C)C(=O)CN(C)C(=O)CN(C)C(=O)CN(C)C(=O)CN(C)C(=O)CN(C)C(=O)CN(C)C(=O)CN(C)C(=O)CN(C)C(=O)CN(C)C(=O)CN(C)C(=O)CN(C)C(=O)CN(C)C(=O)CN(C)C(=O)CC[C@H](NC(=O)CC[C@H](NC(=O)CC[C@H](NC(=O)CCCCCCCCCCCCCCCCCCC(=O)O)C(=O)O)C(=O)O)C(=O)O)CC1)C(=O)N[C@@H](CCN)C(=O)N(C)[C@@H](C)C(=O)N[C@@H](CCCNC(=N)N)C(=O)NCC(N)=O
For the molecule B1, the EC50 (hNMUR1) buffer was > 1000 nM.

B2: C20DA-gGlu3-Sar15-AEPipAc-Tyr-Phe-NMeLeu-Nle-Orn-Pro-Arg-Gly-NH2 (peptide)
peptide: EEEXXXXXXXXXXXXXXXXYFLXXPRG
HELM: PEPTIDE1{[O=C(O)CCCCCCCCCCCCCCCCCCC(=O)[*:2]].[gGlu].[gGlu].[gGlu].[Sar].[Sar].[Sar].[Sar].[Sar].[Sar].[Sar].[Sar].[Sar].[Sar].[Sar].[Sar].[Sar].[Sar].[Sar].[O=C(CN1CCN(CCN[*:1])CC1)[*:2]].Y.F.[meL].[Nle].[Orn].P.R.G.[am]}$$$$V2.0
SMILES: CCCC[C@H](NC(=O)[C@H](CC(C)C)N(C)C(=O)[C@H](Cc1ccccc1)NC(=O)[C@H](Cc1ccc(O)cc1)NC(=O)CN1CCN(CCNC(=O)CN(C)C(=O)CN(C)C(=O)CN(C)C(=O)CN(C)C(=O)CN(C)C(=O)CN(C)C(=O)CN(C)C(=O)CN(C)C(=O)CN(C)C(=O)CN(C)C(=O)CN(C)C(=O)CN(C)C(=O)CN(C)C(=O)CN(C)C(=O)CN(C)C(=O)CC[C@H](NC(=O)CC[C@H](NC(=O)CC[C@H](NC(=O)CCCCCCCCCCCCCCCCCCC(=O)O)C(=O)O)C(=O)O)C(=O)O)CC1)C(=O)N[C@@H](CCCN)C(=O)N1CCC[C@H]1C(=O)N[C@@H](CCCNC(=N)N)C(=O)NCC(N)=O
As for B2, the EC50 (hNMUR1) buffer turned out to be 890 nM.

B3: C18DA-gGlu3-Sar15-AEPipAc-Tyr-Phe-NMeLeu-Nle-Arg-Pro-Arg-Gly-NH2 (peptide)
peptide: EEEXXXXXXXXXXXXXXXXYFLXRPRG
HELM: PEPTIDE1{[O=C(O)CCCCCCCCCCCCCCCCC(=O)[*:2]].[gGlu].[gGlu].[gGlu].[Sar].[Sar].[Sar].[Sar].[Sar].[Sar].[Sar].[Sar].[Sar].[Sar].[Sar].[Sar].[Sar].[Sar].[Sar].[O=C(CN1CCN(CCN[*:1])CC1)[*:2]].Y.F.[meL].[Nle].R.P.R.G.[am]}$$$$V2.0
SMILES: CCCC[C@H](NC(=O)[C@H](CC(C)C)N(C)C(=O)[C@H](Cc1ccccc1)NC(=O)[C@H](Cc1ccc(O)cc1)NC(=O)CN1CCN(CCNC(=O)CN(C)C(=O)CN(C)C(=O)CN(C)C(=O)CN(C)C(=O)CN(C)C(=O)CN(C)C(=O)CN(C)C(=O)CN(C)C(=O)CN(C)C(=O)CN(C)C(=O)CN(C)C(=O)CN(C)C(=O)CN(C)C(=O)CN(C)C(=O)CN(C)C(=O)CC[C@H](NC(=O)CC[C@H](NC(=O)CC[C@H](NC(=O)CCCCCCCCCCCCCCCCC(=O)O)C(=O)O)C(=O)O)C(=O)O)CC1)C(=O)N[C@@H](CCCNC(=N)N)C(=O)N1CCC[C@H]1C(=O)N[C@@H](CCCNC(=N)N)C(=O)NCC(N)=O
Molecule B3 displayed an EC50 (hNMUR1) buffer of 250 nM.

B4: C20DA-gGlu3-Sar12-AEPipAc-Tyr-Phe-NMeLeu-Nle-Arg-Pro-Arg-Gly-NH2 (peptide)
peptide: EEEXXXXXXXXXXXXXYFLXRPRG
HELM: PEPTIDE1{[O=C(O)CCCCCCCCCCCCCCCCCCC(=O)[*:2]].[gGlu].[gGlu].[gGlu].[Sar].[Sar].[Sar].[Sar].[Sar].[Sar].[Sar].[Sar].[Sar].[Sar].[Sar].[Sar].[O=C(CN1CCN(CCN[*:1])CC1)[*:2]].Y.F.[meL].[Nle].R.P.R.G.[am]}$$$$V2.0
SMILES: CCCC[C@H](NC(=O)[C@H](CC(C)C)N(C)C(=O)[C@H](Cc1ccccc1)NC(=O)[C@H](Cc1ccc(O)cc1)NC(=O)CN1CCN(CCNC(=O)CN(C)C(=O)CN(C)C(=O)CN(C)C(=O)CN(C)C(=O)CN(C)C(=O)CN(C)C(=O)CN(C)C(=O)CN(C)C(=O)CN(C)C(=O)CN(C)C(=O)CN(C)C(=O)CN(C)C(=O)CC[C@H](NC(=O)CC[C@H](NC(=O)CC[C@H](NC(=O)CCCCCCCCCCCCCCCCCCC(=O)O)C(=O)O)C(=O)O)C(=O)O)CC1)C(=O)N[C@@H](CCCNC(=N)N)C(=O)N1CCC[C@H]1C(=O)N[C@@H](CCCNC(=N)N)C(=O)NCC(N)=O
B4 came in with an EC50 (hNMUR1) buffer of 120 nM.

B5: C18DA-gGlu3-Sar12-AEPipAc-Tyr-Phe-NMeLeu-Nle-Orn-Pro-Arg-Gly-NH2 (peptide)
peptide: EEEXXXXXXXXXXXXXYFLXXPRG
HELM: PEPTIDE1{[O=C(O)CCCCCCCCCCCCCCCCC(=O)[*:2]].[gGlu].[gGlu].[gGlu].[Sar].[Sar].[Sar].[Sar].[Sar].[Sar].[Sar].[Sar].[Sar].[Sar].[Sar].[Sar].[O=C(CN1CCN(CCN[*:1])CC1)[*:2]].Y.F.[meL].[Nle].[Orn].P.R.G.[am]}$$$$V2.0
SMILES: CCCC[C@H](NC(=O)[C@H](CC(C)C)N(C)C(=O)[C@H](Cc1ccccc1)NC(=O)[C@H](Cc1ccc(O)cc1)NC(=O)CN1CCN(CCNC(=O)CN(C)C(=O)CN(C)C(=O)CN(C)C(=O)CN(C)C(=O)CN(C)C(=O)CN(C)C(=O)CN(C)C(=O)CN(C)C(=O)CN(C)C(=O)CN(C)C(=O)CN(C)C(=O)CN(C)C(=O)CC[C@H](NC(=O)CC[C@H](NC(=O)CC[C@H](NC(=O)CCCCCCCCCCCCCCCCC(=O)O)C(=O)O)C(=O)O)C(=O)O)CC1)C(=O)N[C@@H](CCCN)C(=O)N1CCC[C@H]1C(=O)N[C@@H](CCCNC(=N)N)C(=O)NCC(N)=O
Molecule B5 had an EC50 (hNMUR1) buffer of 660 nM.

B6: C20DA-gGlu3-Sar9-AEPipAc-Tyr-Phe-NMeLeu-Nle-Arg-Pro-Arg-Gly-NH2 (peptide)
peptide: EEEXXXXXXXXXXYFLXRPRG
HELM: PEPTIDE1{[O=C(O)CCCCCCCCCCCCCCCCCCC(=O)[*:2]].[gGlu].[gGlu].[gGlu].[Sar].[Sar].[Sar].[Sar].[Sar].[Sar].[Sar].[Sar].[Sar].[O=C(CN1CCN(CCN[*:1])CC1)[*:2]].Y.F.[meL].[Nle].R.P.R.G.[am]}$$$$V2.0
SMILES: CCCC[C@H](NC(=O)[C@H](CC(C)C)N(C)C(=O)[C@H](Cc1ccccc1)NC(=O)[C@H](Cc1ccc(O)cc1)NC(=O)CN1CCN(CCNC(=O)CN(C)C(=O)CN(C)C(=O)CN(C)C(=O)CN(C)C(=O)CN(C)C(=O)CN(C)C(=O)CN(C)C(=O)CN(C)C(=O)CN(C)C(=O)CC[C@H](NC(=O)CC[C@H](NC(=O)CC[C@H](NC(=O)CCCCCCCCCCCCCCCCCCC(=O)O)C(=O)O)C(=O)O)C(=O)O)CC1)C(=O)N[C@@H](CCCNC(=N)N)C(=O)N1CCC[C@H]1C(=O)N[C@@H](CCCNC(=N)N)C(=O)NCC(N)=O
B6 came in with an EC50 (hNMUR1) buffer of 130 nM.

B7: C18DA-gGlu3-Sar12-AEPipAc-Tyr-Phe-NMeLeu-Nle-Dbu-NMeAla-Arg-Gly-NH2 (peptide)
peptide: EEEXXXXXXXXXXXXXYFLXXARG
HELM: PEPTIDE1{[O=C(O)CCCCCCCCCCCCCCCCC(=O)[*:2]].[gGlu].[gGlu].[gGlu].[Sar].[Sar].[Sar].[Sar].[Sar].[Sar].[Sar].[Sar].[Sar].[Sar].[Sar].[Sar].[O=C(CN1CCN(CCN[*:1])CC1)[*:2]].Y.F.[meL].[Nle].[Dab].[meA].R.G.[am]}$$$$V2.0
SMILES: CCCC[C@H](NC(=O)[C@H](CC(C)C)N(C)C(=O)[C@H](Cc1ccccc1)NC(=O)[C@H](Cc1ccc(O)cc1)NC(=O)CN1CCN(CCNC(=O)CN(C)C(=O)CN(C)C(=O)CN(C)C(=O)CN(C)C(=O)CN(C)C(=O)CN(C)C(=O)CN(C)C(=O)CN(C)C(=O)CN(C)C(=O)CN(C)C(=O)CN(C)C(=O)CN(C)C(=O)CC[C@H](NC(=O)CC[C@H](NC(=O)CC[C@H](NC(=O)CCCCCCCCCCCCCCCCC(=O)O)C(=O)O)C(=O)O)C(=O)O)CC1)C(=O)N[C@@H](CCN)C(=O)N(C)[C@@H](C)C(=O)N[C@@H](CCCNC(=N)N)C(=O)NCC(N)=O
As for B7, the EC50 (hNMUR1) buffer was > 1000 nM.

B8: C20DA-gGlu3-Sar15-AEPipAc-Tyr-Phe-NMeLeu-Nle-Dbu-Pro-Arg-Gly-NH2 (peptide)
peptide: EEEXXXXXXXXXXXXXXXXYFLXXPRG
HELM: PEPTIDE1{[O=C(O)CCCCCCCCCCCCCCCCCCC(=O)[*:2]].[gGlu].[gGlu].[gGlu].[Sar].[Sar].[Sar].[Sar].[Sar].[Sar].[Sar].[Sar].[Sar].[Sar].[Sar].[Sar].[Sar].[Sar].[Sar].[O=C(CN1CCN(CCN[*:1])CC1)[*:2]].Y.F.[meL].[Nle].[Dab].P.R.G.[am]}$$$$V2.0
SMILES: CCCC[C@H](NC(=O)[C@H](CC(C)C)N(C)C(=O)[C@H](Cc1ccccc1)NC(=O)[C@H](Cc1ccc(O)cc1)NC(=O)CN1CCN(CCNC(=O)CN(C)C(=O)CN(C)C(=O)CN(C)C(=O)CN(C)C(=O)CN(C)C(=O)CN(C)C(=O)CN(C)C(=O)CN(C)C(=O)CN(C)C(=O)CN(C)C(=O)CN(C)C(=O)CN(C)C(=O)CN(C)C(=O)CN(C)C(=O)CN(C)C(=O)CC[C@H](NC(=O)CC[C@H](NC(=O)CC[C@H](NC(=O)CCCCCCCCCCCCCCCCCCC(=O)O)C(=O)O)C(=O)O)C(=O)O)CC1)C(=O)N[C@@H](CCN)C(=O)N1CCC[C@H]1C(=O)N[C@@H](CCCNC(=N)N)C(=O)NCC(N)=O
For B8, the EC50 (hNMUR1) buffer was 1500 nM.
